Data taken from article PMC6987120, “Structural insights into ATP hydrolysis by the MoxR ATPase RavA and the LdcI-RavA cage-like complex” (Communications Biology, 2020).
Several values for one entry are separate records, joined by “and”; a condition that tells them apart may be missing. Identical values can stand only once. Values belong to the binder of their own block, whether it stands above or below them.

B4: acid stress-inducible lysine decarboxylase LdcI (enzyme, E. coli)
chain: MNVIAILNHMGVYFKEEPIRELHRALERLNFQIVYPNDRDDLLKLIENNARLCGVIFDWDKYNLELCEEISKMNENLPLYAFANTYSTLDVSLNDLRLQISFFEYALGAAEDIANKIKQTTDEYINTILPPLTKALFKYVREGKYTFCTPGHMGGTAFQKSPVGSLFYDFFGPNTMKSDISISVSELGSLLDHSGPHKEAEQYIARVFNADRSYMVTNGTSTANKIVGMYSAPAGSTILIDRNCHKSLTHLMMMSDVTPIYFRPTRNAYGILGGIPQSEFQHATIAKRVKETPNATWPVHAVITNSTYDGLLYNTDFIKKTLDVKSIHFDSAWVPYTNFSPIYEGKCGMSGGRVEGKVIYETQSTHKLLAAFSQASMIHVKGDVNEETFNEAYMMHTTTSPHYGIVASTETAAAMMKGNAGKRLINGSIERAIKFRKEIKRLRTESDGWFFDVWQPDHIDTTECWPLRSDSTWHGFKNIDNEHMYLDPIKVTLLTPGMEKDGTMSDFGIPASIVAKYLDEHGIVVEKTGPYNLLFLFSIGIDKTKALSLLRALTDFKRAFDLNLRVKNMLPSLYREDPEFYENMRIQELAQNIHKLIVHHNLPDLMYRAFEVLPTMVMTPYAAFQKELHGMTEEVYLDEMVGRINANMILPYPPGVPLVMPGEMITEESRPVLEFLQMLCEIGAHYPGFETDIHGAYRQADGRYTVKVLKEESKK
notes: LdcI, inducible lysine decarboxylase of E. coli; Decamer in the cryo-EM maps of the cage; Buffers held 0.1 mM PLP; source: ppGpp-/- E. coli strain (MG1655 ΔrelA ΔspoT), purified as previously described; copies: 10

Experiments:
[1] = molecular target: B4; assay: cryo-EM structure; purified LdcI and RavA mixed at about 4.5:2 RavA:LdcI monomers; 20 mM Tris pH 7.9, 300 mM NaCl, 2 mM ADP, 10 mM MgCl2, 0.1 mM PLP, 1 mM DTT; room temperature; maps of Class 1 and Class 2 without symmetry imposed; settings: both partners purified
[2] = molecular target: the molecule itself; assay: as above
[3] = molecular target: T1, LdcI (acid stress-inducible lysine decarboxylase) (E. coli, UniProt P0A9H3 1-715); assay: BLI; biotinylated RavA-AviTag incubated with 1 mM ADP for 10 min, on streptavidin biosensors, quenched with biocytin; LdcI 500-31.25 nM in solution; pH 7.0 (1x HBS: 25 mM HEPES, 300 mM NaCl, 10 mM MgCl2, 10% glycerol, with 1x kinetics buffer, 1 mM ADP, 1 mM DTT, 0.1 mM PLP); 293 K, Octet RED96; 1:1 interaction model; settings: both partners purified
T1 construct: Inducible lysine decarboxylase LdcI of E. coli; 0.1 mM PLP in the BLI buffer; also called lysine decarboxylase LdcI; source: E. coli ppGpp-/- strain MG1655 ΔrelA ΔspoT, purified as previously described
T1 sequence: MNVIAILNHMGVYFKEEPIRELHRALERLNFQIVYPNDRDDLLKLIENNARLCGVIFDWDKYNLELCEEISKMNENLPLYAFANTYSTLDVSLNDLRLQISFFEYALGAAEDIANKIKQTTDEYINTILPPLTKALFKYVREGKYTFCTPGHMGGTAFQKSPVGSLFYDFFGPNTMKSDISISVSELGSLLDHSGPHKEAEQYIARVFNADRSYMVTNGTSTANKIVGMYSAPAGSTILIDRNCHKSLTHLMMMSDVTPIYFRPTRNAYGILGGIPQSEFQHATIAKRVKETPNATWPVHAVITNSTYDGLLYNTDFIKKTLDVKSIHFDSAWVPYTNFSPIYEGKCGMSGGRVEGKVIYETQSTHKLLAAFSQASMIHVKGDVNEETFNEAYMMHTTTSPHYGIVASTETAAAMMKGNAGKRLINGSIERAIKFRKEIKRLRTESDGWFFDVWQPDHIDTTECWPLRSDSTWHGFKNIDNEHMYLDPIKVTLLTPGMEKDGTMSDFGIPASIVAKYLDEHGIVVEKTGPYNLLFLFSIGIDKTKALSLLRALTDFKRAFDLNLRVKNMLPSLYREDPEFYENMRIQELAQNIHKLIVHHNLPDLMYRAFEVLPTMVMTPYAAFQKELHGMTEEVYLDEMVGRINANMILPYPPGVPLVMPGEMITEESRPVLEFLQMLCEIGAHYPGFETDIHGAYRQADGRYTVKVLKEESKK

[4] = molecular target: T1, LdcI (acid stress-inducible lysine …); assay: BLI; biotinylated RavA-AviTag incubated with 1 mM ADP for 10 min, on streptavidin biosensors, quenched with biocytin; LdcI 500-31.25 nM in solution; pH 8.0 (1x TBS: 25 mM Tris, 300 mM NaCl, 10 mM MgCl2, 10% glycerol, with 1x kinetics buffer, 1 mM ADP, 1 mM DTT, 0.1 mM PLP); 293 K, Octet RED96; 1:1 interaction model; settings: both partners purified
[5] = molecular target: T1, LdcI (acid stress-inducible lysine …); assay: BLI; biotinylated RavA-AviTag incubated with 1 mM ADP for 10 min, on streptavidin biosensors, quenched with biocytin; LdcI 500-31.25 nM in solution; pH 5.0 (1x MES pH 5, with 1x kinetics buffer, 1 mM ADP, 1 mM DTT, 0.1 mM PLP); 293 K, Octet RED96; 1:1 interaction model; settings: both partners purified
[6] = molecular target: T1, LdcI (acid stress-inducible lysine …); assay: BLI; biotinylated RavA-AviTag incubated with 1 mM ADP for 10 min, on streptavidin biosensors, quenched with biocytin; LdcI 500-31.25 nM in solution; pH 6.5 (1x MES: 25 mM MES, 300 mM NaCl, 10 mM MgCl2, 10% glycerol, with 1x kinetics buffer, 1 mM ADP, 1 mM DTT, 0.1 mM PLP); 293 K, Octet RED96; 1:1 interaction model; settings: both partners purified
[7] = molecular target: T1, LdcI (acid stress-inducible lysine …); assay: BLI; biotinylated RavA-AviTag on streptavidin biosensors WITHOUT prior incubation with ADP, quenched with biocytin; LdcI 500-31.25 nM in solution; pH 7.0 (1x HBS: 25 mM HEPES, 300 mM NaCl, 10 mM MgCl2, 10% glycerol, with 1x kinetics buffer, 1 mM DTT, 0.1 mM PLP); 293 K, Octet RED96; 1:1 interaction model; settings: both partners purified
[8] = molecular target: B4; assay: BLI; biotinylated RavA-AviTag (pre-incubated with 1 mM ADP) immobilised on streptavidin biosensors; LdcI 500-31.25 nM in solution; Octet RED96, 293 K; pH 8 (Tris), 7 (HEPES), 6.5 and 5 (MES), 300 mM NaCl, 10 mM MgCl2, 10% glycerol, 0.1% BSA, 0.02% Tween-20, 1 mM ADP, 1 mM DTT, 0.1 mM PLP; 1:1 interaction model; averages over the four pH values; settings: both partners purified

binding result [1]: binds
B1: MoxR AAA+ ATPase RavA (enzyme)
chain: not shown
notes: RavA, MoxR family AAA+ ATPase of E. coli, encoded by the ravAviaA operon; cloned in the p11 vector (N-terminal cleavable HIS-tag); Hexamer (spiral or C2-symmetric closed ring) by cryo-EM with ADP; also called free RavA; RavA-ADP
stoichiometry N [2]: 6

Kd [3]: 26.7 nM
koff [3]: 0.000659 s⁻¹
kon [3]: 24700 M⁻¹ s⁻¹
Kd [4]: 44.2 nM
koff [4]: 0.00131 s⁻¹
kon [4]: 29600 M⁻¹ s⁻¹
Kd [5]: 27.1 nM
koff [5]: 0.00074 s⁻¹
kon [5]: 27300 M⁻¹ s⁻¹
Kd [6]: 20.9 nM
koff [6]: 0.000538 s⁻¹
kon [6]: 25700 M⁻¹ s⁻¹
Kd [7]: 46.3 nM
koff [7]: 0.000987 s⁻¹
kon [7]: 21300 M⁻¹ s⁻¹
B2: biotinylated RavA-AviTag (enzyme)
chain: not shown
modifications: biotin (biotinylated AviTag)
notes: MoxR AAA+ ATPase RavA of E. coli, cloned in the p11 vector (N-terminal cleavable HIS-tag) with a C-terminal AviTag added; The methods describe biotinylation during expression (D-biotin in the medium), the results say 'in vitro biotinylated'; source: E. coli BL-21 DE3 (100 μM D-biotin in the LB medium, overnight, 20 °C), purified to homogeneity; not shown: AviTag, C-terminal, kept

Kd [8]: 20 nM to 40 nM (2×) and 29.7 nM
koff [8]: 0.000811 s⁻¹
kon [8]: 26800 M⁻¹ s⁻¹
B3: biotinylated RavA-AviTag (enzyme)
chain: not shown
modifications: biotin (biotinylated AviTag)
notes: RavA of E. coli cloned in the p11 vector (N-terminal cleavable HIS-tag) with a C-terminal AviTag added; Incubated with 1 mM ADP for 10 min before BLI; also called AviTag-containing RavA; source: E. coli BL-21 DE3 (100 μM D-biotin in the LB medium, overnight, 20 °C), purified to homogeneity; not shown: AviTag, C-terminal, kept

Binder: B4
stoichiometry N [2]: 10
